In US20220042996A1, “COMPOSITIONS AND METHODS RELATED TO LATROPHILINS AS BIOMARKERS FOR HAEMATOPOIETIC CELL CANCER” (priority 2015, published 2022):
Entries after “also recorded” stand apart in the source; their conditions may differ.

Legend:
Type in all cases: cell-based
mTOR = experiment: Phospho-S2448 mTOR ELISA in primary human AML cells; settings: AML-PB001F cells; for mTOR activation: 24 h
Description: Phosphorylation of mTOR was monitored using ELISA assays as recently described (Yasinska I. M. et al (supra); Abooali M. et al (2014) Sci. Rep. 4 6307; Prokhorov A. et al (supra)). Briefly, ELISA plates were coated with mouse anti-mTOR antibodies and blocked with 2% BSA. Cell lysates were then added to the wells and kept at room temperature for at least 2 h (under constant agitation). After extensive washing with TBST buffer (Tris-Buffered Saline and Tween 20), […] mTOR antibody was added and plates were incubated for at least 2 h at room temperature with constant agitation. Plates were then washed with TBST buffer and incubated with 1:1000 Horse Radish Peroxidase-labelled goat anti-rabbit IgG in TBST buffer. After extensive washing with TBST, bound secondary antibodies were then detected by the peroxidase reaction (ortho-phenylenediamine/H2O2).
(§1) Primary human AML mononuclear cells (AML-PB001 F, newly diagnosed/untreated) were purchased from AllCells (Alameda, Calif., USA) and handled in accordance with manufacturer's instructions.
(§2) Experiments were carried out to ascertain whether or not LPHN 1 and LPHN 2 are expressed and function in primary human AML cells. AML-PB001 F primary human mononuclear blasts were used and exposed for 24 h to 1 μg/ml LPS, 500 pM LTX or a combination of these ligands.
(§3) To analyse LPHN1/2 expression levels in AML-PB001F cells, the cells were exposed to mTOR activators (1 μg/ml LPS, 0.1 μg/ml SCF or 2 μg/ml anti-Tim-3 antibody) for 4 h.

[1] = system: AML-PB001F primary human AML cells; experiment: LPHN1/2 protein levels by Western blot in primary human AML cells; settings: 4 h, 1 μg/ml LPS, 0.1 μg/ml SCF or 2 μg/ml anti-Tim-3 antibody
Description: (§4) Levels of LPHN 1 and LPHN 2, total and phospho-T389 p70 S6K1 were determined by Western blot analysis and compared to β-actin in order to determine equal protein loading, as described by Yasinska I. M. et al (Cell. Mol. Life Sci. (2014) 71 699-710). Li-Cor goat secondary antibodies, conjugated with fluorescent dyes, were used according to the manufacturer's protocol to visualise the proteins of interest using a Li-Cor Odyssey imaging system. Western blot data were analysed quantitatively using Odyssey software and values were normalised against respective β-actin bands.
as §1, §3

[2] = system: primary healthy human leukocytes; experiment: Latrophilin protein expression by Western blot in primary healthy human leukocytes; settings: primary leucocytes from healthy donors, 4 or 24 h exposure
Description: Primary AML-PB001F cells were exposed for 4 h (A) and healthy human leukocytes for 4 h (B) or 24 h (C) to indicated concentrations of LPS, SCF and anti-Tim-3. Following cell lysis, latrophilin protein levels were analysed by Western blot. Phospho-S2448 mTOR was measured by ELISA. Furthermore, non-treated THP-1 cells, primary human AML cells and primary healthy human leukocytes, as well as those stimulated for 24 h with 1 μg/ml LPS were subjected to quantitative real time polymerase chain reaction qRT-PCR (D). Images show one representative result of at least four experiments, which gave similar results. Data are mean values±SD (n=4). *-p<0.05; **-p<0.01.
as §4, with “bands. […]” for “bands.”

U937 human AML cells = experiment: IL-6 release by ELISA in U937 cells; settings: 24 h, 500 pM LTX in combination with 1 μg/ml LPS
Description: (§5) THP-1 and U937 human leukaemia monocytic macrophages were obtained from the European Collection of Cell Cultures (Salisbury, UK). Cells were cultured in RPMI 1640 media supplemented with 10% foetal calf serum, penicillin (50 IU/ml) and streptomycin sulphate (50 μg/ml).
(§6) Concentrations of IL-6 released into the cell culture media were analysed by ELISA (R&D Systems assay kit) according to the manufacturers protocol.
(§7) Expression of LPHN 1 and LPHN 2 in human AML cell lines—U937 and THP-1—was investigated. Cells were stimulated for 24 h with 1 μg/ml LPS, 500 pM LTX or a combination of these ligands. LPS is a pathogen-associated molecular pattern shared by Gram-negative bacteria and is recognised by the Toll-like receptor 4 (TLR4), which is highly expressed by human myeloid cells. Importantly, LPS was chosen because TLR4 may be targeted by endogenous ligands (like proteins released by dysfunctional mitochondria) to promote expression/release of IL-6 and other important cytokines/growth factors required for leukaemia cell survival.

THP-1 human AML cells = experiment: IL-6 release by ELISA in THP-1 cells; settings: 24 h, 500 pM LTX in combination with 1 μg/ml LPS
Description: as §5, §6, §7

[3] = system: AML-PB001F primary human AML cells; experiment: IL-6 release by ELISA in primary human AML cells; settings: 24 h
Description: as §6, §1, §2

[4] = 500 pM LTX in combination with 1 μg/ml LPS
[5] = 1 μg/ml LPS alone or 500 pM LTX alone

Molecule | phosphorylation of S2448 in mTOR (mTOR activation) (mTOR; 4 h, 1 μg/ml LPS, 0.1 μg/ml SCF or 2 μg/ml anti-Tim-3 antibody) | LPHN1/2 expression [1] | LPHN2 expression [1] | latrophilin expression [2] | LPS-induced IL-6 exocytosis (U937 human AML cells) | LPS-induced IL-6 exocytosis (THP-1 human AML cells) | IL-6 exocytosis [3, 4] | IL-6 release [3, 5] | mTOR activation (mTOR; [4]) | mTOR activation (mTOR; [5])
SCF: Human Stem Cell Factor protein produced in E. coli; binds Kit (CD117) | significantly increased; also recorded: strongest effect | significantly up-regulated | significantly up-regulated | not inducible | – | – | – | – | – | –
LTX (protein) EGEDLTLEEKAEICSELELQQKYVDIASNIIGDLSSLPIAGKIAGTIAAAAMTATHVASGRLDIEQTLLGCSDLPFDQIKEVLENRFNEIDRKLDSHSAALEEITKLVEKSISVVEKTRKQMNKRFDEVMKSIQDAKVSPIISKINNFARYFDTEKERIRGLKLNDYILKLEEPNGILLHFKESRTPTDDSLQAPLFSIIEEGYAVPKSIDDELAFKVLYALLYGTQTYVSVMFFLLEQYSFLANHYYEKGYLEKYDEYFNSLNNVFLDFKSSLVGTGTSNNEGLLDRVLQVLMTVKNSEFLGLEKNGVDEMLNEKINLFNKIKEEIEGKQKMTLSETPENFAQISFDKDITTPIGDWRDGREVRYAVQYASETLFSKISHWSDPVSVREKACPTLRMPVDQTRRNVLVFRKFDSSKPQLVGEITPYLSNFIDIDRDLYNAASNPDSAVGFKEFTKLNYDGANIRATFDHGRTVFHAAAKSGNDKIMFGLTFLAKSTELNQPDKKGYTPIHVAADSGNAGIVNLLIQRGVSINSKTYHFLQTPLHLAAQRGFVTTFQRLMESPEININERDKDGFTPLHYAIRGGERILEAFLNQISIDVNAKSNTGLTPFHLAIIKNDWPVASTLLGSKKVDINAVDENNITALHYAAILGYLETTKQLINLKEINANVVSSPGLLSALHYAILYKHDDVASFLMRSSNVNVNLKALGGITPLHLAVIQGRKQILSLMFDIGVNIEQKTDEKYTPLHLAAMSKYPELIQILLDQGSNFEAKTNSGATPLHLATFKGKSQAALILLNNEVNWRDTDENGQMPIHGAAMTGLLDVAQAIISIDATVVDIEDKNSDTPLNLAAQNSHIDVIKYFIDQGADINTRNKKGLAPLLAFSKKGNLDMVKYLFDKNANVYIADNDGMNFFYYAVQNGHLNIVKYAMSEKDKFEWSNTDNNRRDECPNEECAISHFAVCDAVQFDRIEIVKYFVGTLGNFAICGPLHQAARYGHLDIVKYLVEEEFLSVDGSKTDTPLCYASENGHFTVVQYLVSNGAKVNHDCGNGMTAIDKAITKNHLQVVQFLAANGVDFRRKNSRGTTPFLTAVAENALHIAEYLIREKRQDININEQNVDKDTALHLAVYYKNLQMIKLLIKYGIDVTIRNAYDKTALDIAIDAKFSNIVEYLKTKSGKFRR | – | – | – | – | highly up-regulated | highly up-regulated | significantly up-regulated | did not influence | significantly up-regulated | did not influence
